In article PMC1310897:

Legend:
Assay in all cases: fluorescence polarization
RecQ WT = RecQ WT (Escherichia coli, UniProt P15043 1-609)
RecQ F158L = RecQ F158L (Escherichia coli, UniProt P15043 1-609, F158L)
RecQ W154L = RecQ W154L (Escherichia coli, UniProt P15043 1-609, W154L)
RecQ R159L = RecQ R159L (Escherichia coli, UniProt P15043 1-609, R159L)

Measured: binding result

GCGTGGGTAATTGTGCTTCAATGGACTGAC (ssDNA) [oligo 1 ssDNA (30 nt)]
binds: all assays above
